Experimental data published in US20090286723A1.

Assays:
[1] = target: T1, CGRP receptors (SK-N-MC cell membranes), Q16602; experiment: 125I-hCGRP displacement, SK-N-MC membranes
T1 chain 1: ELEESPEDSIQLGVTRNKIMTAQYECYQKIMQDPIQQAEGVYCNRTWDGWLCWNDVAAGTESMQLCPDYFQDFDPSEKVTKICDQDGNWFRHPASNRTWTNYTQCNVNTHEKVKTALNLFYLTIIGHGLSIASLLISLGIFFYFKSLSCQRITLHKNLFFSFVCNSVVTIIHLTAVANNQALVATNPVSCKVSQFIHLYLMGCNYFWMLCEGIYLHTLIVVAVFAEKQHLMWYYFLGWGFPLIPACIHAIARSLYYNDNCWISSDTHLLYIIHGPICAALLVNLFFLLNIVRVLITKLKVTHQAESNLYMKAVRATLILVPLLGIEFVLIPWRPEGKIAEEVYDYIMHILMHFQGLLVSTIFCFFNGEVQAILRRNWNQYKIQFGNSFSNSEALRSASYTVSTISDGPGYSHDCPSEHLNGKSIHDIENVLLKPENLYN
T1 chain 2: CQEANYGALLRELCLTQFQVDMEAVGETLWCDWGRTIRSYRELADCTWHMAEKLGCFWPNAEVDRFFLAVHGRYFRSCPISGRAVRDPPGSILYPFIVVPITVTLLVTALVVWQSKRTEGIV

[2] = target: amylin receptors (rat nucleus accumbens membranes) (rat); experiment: 125I-amylin displacement, rat nucleus accumbens membranes
[3] = target: GLP-1/GIP/CT (receptors read by the GLP-1/GIP/CT cyclase assay); experiment: cell-based or functional assay
[4] = target: calcitonin receptor; experiment: cell-based or functional assay
[5] = target: T2, amylin receptors (rat nucleus accumbens membranes) (rat); experiment: amylin receptor binding assay
T2 chain 1: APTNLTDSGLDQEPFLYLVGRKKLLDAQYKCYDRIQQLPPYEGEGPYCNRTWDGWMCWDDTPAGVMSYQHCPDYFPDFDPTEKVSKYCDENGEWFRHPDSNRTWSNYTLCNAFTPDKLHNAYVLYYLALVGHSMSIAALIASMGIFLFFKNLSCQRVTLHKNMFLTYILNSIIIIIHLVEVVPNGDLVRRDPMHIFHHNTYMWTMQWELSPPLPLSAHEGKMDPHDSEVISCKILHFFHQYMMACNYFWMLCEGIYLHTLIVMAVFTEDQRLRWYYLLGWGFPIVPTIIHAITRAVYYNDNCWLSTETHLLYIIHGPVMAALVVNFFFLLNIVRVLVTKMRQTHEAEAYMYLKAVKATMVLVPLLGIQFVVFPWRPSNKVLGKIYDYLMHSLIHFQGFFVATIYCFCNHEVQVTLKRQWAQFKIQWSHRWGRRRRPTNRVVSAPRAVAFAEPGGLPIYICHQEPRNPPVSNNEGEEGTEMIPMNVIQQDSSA
T2 chain 2: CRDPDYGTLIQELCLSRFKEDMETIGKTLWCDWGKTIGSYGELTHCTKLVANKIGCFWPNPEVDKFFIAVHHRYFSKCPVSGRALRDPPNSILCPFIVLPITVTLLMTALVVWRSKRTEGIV

[6] = target: T3, neuropeptide Y2 receptor (SK-N-BE cell membranes), P49146; experiment: [125I]-human PYY displacement, SK-N-BE membranes
T3 chain: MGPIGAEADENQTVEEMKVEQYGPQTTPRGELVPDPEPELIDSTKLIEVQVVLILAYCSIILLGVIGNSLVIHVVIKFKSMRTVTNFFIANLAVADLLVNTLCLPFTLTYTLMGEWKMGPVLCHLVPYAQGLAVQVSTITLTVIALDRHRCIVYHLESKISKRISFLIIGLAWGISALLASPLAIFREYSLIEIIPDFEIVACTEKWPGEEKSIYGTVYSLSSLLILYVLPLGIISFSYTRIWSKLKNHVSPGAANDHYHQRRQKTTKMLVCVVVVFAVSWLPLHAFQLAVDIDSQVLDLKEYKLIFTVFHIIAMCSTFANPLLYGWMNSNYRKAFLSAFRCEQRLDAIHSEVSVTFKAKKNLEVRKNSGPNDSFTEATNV

Sequence of calcitonin receptor (P30988 whole entry): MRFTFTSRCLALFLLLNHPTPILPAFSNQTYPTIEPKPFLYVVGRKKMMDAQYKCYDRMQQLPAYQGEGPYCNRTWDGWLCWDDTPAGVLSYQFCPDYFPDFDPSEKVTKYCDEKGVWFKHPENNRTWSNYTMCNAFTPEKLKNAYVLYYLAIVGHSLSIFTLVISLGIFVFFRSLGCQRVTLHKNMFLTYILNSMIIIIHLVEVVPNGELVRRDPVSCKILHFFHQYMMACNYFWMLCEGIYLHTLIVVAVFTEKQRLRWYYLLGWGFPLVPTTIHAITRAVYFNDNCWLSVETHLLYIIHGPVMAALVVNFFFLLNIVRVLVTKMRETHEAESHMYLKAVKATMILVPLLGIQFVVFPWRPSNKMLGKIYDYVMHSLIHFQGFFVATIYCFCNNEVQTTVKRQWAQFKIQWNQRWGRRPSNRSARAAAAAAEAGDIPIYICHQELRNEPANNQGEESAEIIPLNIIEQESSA

## KCNTATCATQRLANFLVRSSNNLGPVLPPTNVGSNTY (modifications not checked) [Rat amylin]
[1]
  Receptor Binding: 21
[2]
  Receptor Binding: 0.05
[3]
  Receptor Activation: GLP-1/GIP/CT cyclase: 5
[4]
  Receptor Activation: CT cyclase: 326

## DFMGWMDFGKRKCNTATCATQRLANELVRLQTYPRTNVGSNTY (modifications not checked) [27(p-CH2SO3)-PheCCK8(26-33),G,K,R,15Glu,hAmy(1-17),18Arg,Sct(18-26),hAmy(32-37)]
[1]
  Receptor Binding: 4.4
[3]
  Receptor Activation: GLP-1/GIP/CT cyclase: 1000

## DFMGWMDFGKRKCNTATCATQRLANELVRLQTYPRTNVGSNTY (modifications not checked) [DF(P-CH2SO3)… …]
[5]
  IC50: 0.083 nM

B1: [#Mal-Bu-(bAla)-PYY-(3-36), amide] [#S-Prp-(bAla)-Compound 10, amide] (peptide)
chain 1: not shown
chain 2: […]
modifications: not checked
[6]
  Receptor Binding: 0.2

B2: [#Suc-(bAla)-PYY-(3-36), amide] [#NH-Des-Lys1-Rat Amylin, amide] (peptide)
chain 1: not shown
chain 2: CNTATCATQRLANFLVRSSNNLGPVLPPTNVGSNTY
modifications: not checked
[6]
  Receptor Binding: 0.39
[4]
  Receptor Activation: CT cyclase: 645
